Results from patent US7316915 (TANOX, dated 2008).
Where no end group is shown, it is not given here.

Tests used:
[1] = biological target: T1, BakΔ3 (N-terminal deletion mutant of Bak, amino acids 96-210 of full-length Bak) (Homo sapiens (Human), UniProt Q16611 96-211); assay: GST pull-down from Sf9 extract, immunoblot with anti-Bak
T1 construct: Produced in Sf9 cells by baculovirus and used as an NP-40 cell extract
T1 sequence: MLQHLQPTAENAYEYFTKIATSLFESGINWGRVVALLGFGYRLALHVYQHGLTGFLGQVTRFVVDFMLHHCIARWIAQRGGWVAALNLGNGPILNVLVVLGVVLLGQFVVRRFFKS

[2] = biological target: T2, Bak (expressed in yeast, used as lysate) (Homo sapiens (Human), UniProt Q16611 1-211, limits assumed); assay: GST fusion on glutathione-Sepharose column, yeast lysate expressing Bak, Western blot
T2 construct: also called full-length Bak
T2 sequence: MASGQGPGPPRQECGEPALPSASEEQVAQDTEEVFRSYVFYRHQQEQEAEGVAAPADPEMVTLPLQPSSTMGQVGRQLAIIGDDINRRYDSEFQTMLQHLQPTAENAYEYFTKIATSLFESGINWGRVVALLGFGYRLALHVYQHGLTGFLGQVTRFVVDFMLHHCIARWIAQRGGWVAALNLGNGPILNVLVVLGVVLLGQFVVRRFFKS

[3] = biological target: Bcl2 expressed as a fusion protein with the binding domain (BD) of GAL4 (yeast, UniProt P04386 1-147; P10415 1-239, limits assumed); assay: yeast two hybrid
[4] = biological target: Bax expressed as a fusion protein with the binding domain (BD) of GAL4 (yeast, UniProt P04386 1-147; Q07812 1-192, limits assumed); assay: yeast two hybrid
[5] = biological target: T3, Bak expressed as a fusion protein with the binding domain (BD) of GAL4 (yeast, UniProt P04386 1-147); assay: yeast two hybrid (GAL4 AD and BD fusions)
T3 construct: range 1-147; Yeast two-hybrid bait; also called GAL4-Bak fusion protein

[6] = biological target: T4, BBP expressed as a fusion protein with the binding domain (BD) of GAL4 (yeast; human, UniProt P04386 1-147); assay: yeast two hybrid (GAL4 AD and BD fusions)
T4 construct: range 1-147; also called BBP-BD

B1: gst fusion protein containing BBP-Loop2 (internal loop of BBP, amino acids 86 through 133) (other)
chain: HTGYIKVDWQRVEKDMKKAKEQLKIRKSNQIPTEVRSKAEEVVSFVKK
modifications: not fully specified (N-terminus); also: fused to glutathione-S-transferase (GST), not in chain
notes: It was subcloned into pGEX-5X in frame with gst; also called BBP-L2; gst-BBP-L2; not shown: glutathione-S-transferase (gst) as encoded by vector pGEX-5X (Pharmacia)
binding result [1]: no binding | binding result [2]: binds

B2: gst fusion protein containing full-length BHRF-1 (other)
chain: MAYSTREILLALCIRDSRVHGNGTLHPVLELAARETPLRLSPEDTVVLRYHVLLEEIIERNSETFTETWNRFITHTEHVDLDFNSVFLEIFHRGDPSLGRALAWMAWCMHACRTLCCNQSTPYYVVDLSVRGMLEASEGLDGWIHQQGGWSTLIEDNIPGSRRFSWTLFLAGLTLSLLVICSYLFISRGRH
notes: not shown: glutathione-S-transferase (gst)
binding result [2]: binds

B3: gst fusion protein containing BBP-Loop1 (N-terminal 42 amino acid portion of BBP) (other)
chain: MAASSQGNFEGNFESLDLAEFAKKQPWWRKLFGQESGPSAEK
modifications: not fully specified (N-terminus); also: fused to glutathione-S-transferase (GST), not in chain
notes: It was subcloned into pGEX-5X in frame with gst; also called BBP-L1; gst-BBP-L1; not shown: glutathione-S-transferase (gst) as encoded by vector pGEX-5X (Pharmacia)
binding result [2]: binds

B4: BBP expressed as a fusion protein with the activation domain (AD) of GAL4 (other, yeast)
chain: ANFNQSGNIADSSLSFTFTNSSNGPNLITTQTNSQALSQPIASSNVHDNFMNNEITASKIDDGNNSKPLSPGWTDQTAYNAFGITTGMFNTTTMDDVYNYLFDDEDTPPNPKKEMAASSQGNFEGNFESLDLAEFAKKQPWWRKLFGQESGPSAEKYSVATQLFIGGVTGWCTGFIFQKVGKLAATAVGGGFFLLQLANHTGYIKVDWQRVEKDMKKAKEQLKIRKSNQIPTEVRSKAEEVVSFVKKNVLVTGGFFGGFLLGMAS
notes: range 768-881; Yeast two-hybrid prey; also called BBP-AD
binding result [3]: no binding | binding result [4]: no binding | binding result [5]: binds | binding result [6]: binds
